In this test the target is N-terminally 3× FLAG-tagged IglD from Francisella novicida (Francisella novicida) (UniProt Q7X3J2). Briefly: cryo-EM structure.

By stoichiometry N is commonly meant the number of molecules, sites or subunits per partner or assembly. The substance “N-terminally 3× FLAG-tagged IglD from Francisella novicida (from UniProt Q7X3J2 1-398) (natural protein)” gave a stoichiometry N of 3.

Source of the values: publication PMC9600919.
